Results on one protein are retold here after patent publication US20110250668.

The series addresses CBD-cohesin from C. thermocellum displayed on the yeast cell surface (CtCBDcoh yeast), P32781.

Chain of CBD-cohesin from C. thermocellum displayed on the yeast cell surface (CtCBDcoh yeast), P32781 (P32781 whole entry, looked up): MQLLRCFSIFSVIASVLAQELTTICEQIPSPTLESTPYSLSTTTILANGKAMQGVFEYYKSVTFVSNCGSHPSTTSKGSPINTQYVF

B1: Cel8A cellulase spliced to the Cel48S dockerin with aspartic acid substituted for the No. 18 and No. 50 asparagines, His-tagged (CtCBDcohCel8A48SdocN-D yeast) (protein)
chain: AGVPFNTKYPYGPTSIADNQSEVTAMLKAEWEDWKSKRITSNGAGGYKRVQRDASTNYDTVSEGMGYGLLLAVCFNEQALFDDLYRYVKSHFNGNGLMHWHIDANNNVTSHDGGDGAATDADEDIALALIFADKLWGSSGAINYGQEARTLINNLYNHCVEHGSYVLKPGDRWGGSSVTNPSYFAPAWYKVYAQYTGDTRWNQVADKCYQIVEEVKKYNNGTGLVPDWCTASGTPASGQSYDYKYDATRYGWRTAVDYSWFGDQRAKANCDMLTKFFARDGAKGIVDGYTIQGSKISNNHNASFIGPVAAASMTGYDLNFAKELYRETVAVKDSEYYGYYGNSLRLLTLLYITGNFPNPLSDLSGQPTPPSNPTPSLPPQVVYGPSSGTPSTKLYGDVNDDGKVDSTDAVALKRYVLRSGISINTDNADLNEDGRVDSTDLGILKRYILKEIDTLPYKN
As to B1, the CMC decomposition activity entry was “CMC decomposition activity was increased by amino acid substitution (FIG. 11), indicating improved saccharification ability of the yeast”.
